From the supplement of paper PMC9428881 come the findings set out here.

This data set in a line: background-corrected fluorescence of 3'-dye-labeled ssDNA relative to brightest sequence (3'-GCGCG) (fraction); higher = brighter dye fluorescence (less quenching). The gist of the method:
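Each of 1024 permuted pentamers was synthesized as single-stranded DNA on glass slides by light-directed phosphoramidite chemistry, with a 3' Cy3 or Cy5 dye alongside. Arrays were scanned at 532 or 635 nm before and after overnight deprotection with ethylenediamine/ethanol. Values average 10 features per array across at least 3 syntheses. The fluorescence readout, with unlabeled-oligo background removed, is given relative to the brightest sequence.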

± gives the standard error.

On to “TTTTTTCATCATGCTCAGCATTTTTTTTTTTTTTTGGAGT [TGAGG]”, for which the background-corrected fluorescence is, setting by setting: (dye: Cy3 (3' terminal)) 0.653 ± 0.017; (dye: Cy5 (3' terminal)) 0.537 ± 0.048.
As to “TTTTTTCATGATCATGCTCATTTTTTTTTTTTTTTGCGAG [GAGCG]”, the background-corrected fluorescence (dye: Cy3 (3' terminal)) was 0.608 ± 0.03 and the background-corrected fluorescence (dye: Cy5 (3' terminal)) is 0.51 ± 0.085.
For “TTTTTTGATGCTCAGCATGATTTTTTTTTTTTTTTCAGTC [CTGAC]” the same measures were 0.477 ± 0.0054 and 0.373 ± 0.086.
On to “TTTTTGCAGCAGCATGCTCATTTTTTTTTTTTTTTTTTAG [GATTT]”, for which the background-corrected fluorescence came to 0.511 ± 0.015 (dye: Cy3 (3' terminal)) and 0.394 ± 0.048 (dye: Cy5 (3' terminal)).
Consider “TTTTTTGCTCAGCATGATGCTTTTTTTTTTTTTTTAGTCA [ACTGA]”, for which the background-corrected fluorescence is 0.529 ± 0.013 (dye: Cy3 (3' terminal)) and 0.407 ± 0.029 (dye: Cy5 (3' terminal)).
For “TTTTTGCAGCATGATCATGCTTTTTTTTTTTTTTTTTCGA [AGCTT]” the same measures were 0.645 ± 0.025 and 0.533 ± 0.067.
Regarding “TTTTTTGCTGATGATCAGCATTTTTTTTTTTTTTTACCGT [TGCCA]”, the background-corrected fluorescence amounted to 0.624 ± 0.025 (dye: Cy3 (3' terminal)) and 0.479 ± 0.034 (dye: Cy5 (3' terminal)).
As for “TTTTTGCATGATGCTCAGCATTTTTTTTTTTTTTTTCAGT [TGACT]”, the background-corrected fluorescence was 0.596 ± 0.016 (dye: Cy3 (3' terminal)) and 0.488 ± 0.05 (dye: Cy5 (3' terminal)).
For “TTTTTGCATCATGATGATGCTTTTTTTTTTTTTTTTGCCA [ACCGT]”, in that order: 0.519 ± 0.0069 and 0.403 ± 0.029.
For “TTTTTTCATGATGCGCATCATTTTTTTTTTTTTTTGCATG [GTACG]”, in that order: 0.508 ± 0.023 and 0.385 ± 0.023.
For the sequence “TTTTTGCATGATGATGCTGATTTTTTTTTTTTTTTTCCAC [CACCT]”, the background-corrected fluorescence reads like this: (dye: Cy3 (3' terminal)) 0.379 ± 0.023; (dye: Cy5 (3' terminal)) 0.273 ± 0.016.
“TTTTTTGCTCATCATGAGCATTTTTTTTTTTTTTTAGGCT [TCGGA]”: the background-corrected fluorescence by setting is: (dye: Cy3 (3' terminal)) 0.596 ± 0.014; (dye: Cy5 (3' terminal)) 0.435 ± 0.028.
For “TTTTTGCATGATGATCAGCATTTTTTTTTTTTTTTTCCGT [TGCCT]”, in that order: 0.613 ± 0.021 and 0.484 ± 0.027.
Consider “TTTTTTCATGATGAGCATCATTTTTTTTTTTTTTTGCCTG [GTCCG]”, for which the background-corrected fluorescence came to 0.481 ± 0.028 (dye: Cy3 (3' terminal)) and 0.35 ± 0.021 (dye: Cy5 (3' terminal)).
On to “TTTTTTCAGCATGATCATGCTTTTTTTTTTTTTTTGTCGA [AGCTG]”, for which the background-corrected fluorescence (dye: Cy3 (3' terminal)) is 0.645 ± 0.017 and the background-corrected fluorescence (dye: Cy5 (3' terminal)) came out at 0.548 ± 0.034.
For “TTTTTGCATCATCAGCATGATTTTTTTTTTTTTTTTGGTC [CTGGT]”, the background-corrected fluorescence came to 0.478 ± 0.024 (dye: Cy3 (3' terminal)) and 0.387 ± 0.04 (dye: Cy5 (3' terminal)).
In the case of “TTTTTTGCTGCGCATGCGCATTTTTTTTTTTTTTTAATAT [TATAA]”, the background-corrected fluorescence is, setting by setting: (dye: Cy3 (3' terminal)) 0.54 ± 0.022; (dye: Cy5 (3' terminal)) 0.413 ± 0.036.
For “TTTTTTGATGCGCATCATGCTTTTTTTTTTTTTTTCATGA [AGTAC]”, in that order: 0.672 ± 0.026 and 0.579 ± 0.038.
For “TTTTTGCATCATGCTCATCATTTTTTTTTTTTTTTTGAGG [GGAGT]”, the background-corrected fluorescence was determined as 0.67 ± 0.013 (dye: Cy3 (3' terminal)) and 0.529 ± 0.043 (dye: Cy5 (3' terminal)).
In the case of “TTTTTGCATCATGATGCTGATTTTTTTTTTTTTTTTGCAC [CACGT]”, the background-corrected fluorescence reads like this: (dye: Cy3 (3' terminal)) 0.415 ± 0.035; (dye: Cy5 (3' terminal)) 0.321 ± 0.028.
In the case of “TTTTTTCAGCAGCATGCTCATTTTTTTTTTTTTTTGTTAG [GATTG]”, the background-corrected fluorescence was determined as 0.541 ± 0.019 (dye: Cy3 (3' terminal)) and 0.438 ± 0.067 (dye: Cy5 (3' terminal)).
For “TTTTTTGATCATCATGATGATTTTTTTTTTTTTTTCGGCC [CCGGC]”, in that order: 0.465 ± 0.022 and 0.364 ± 0.027.
Regarding “TTTTTTCAGCATGCGCATGCTTTTTTTTTTTTTTTGTATA [ATATG]”, the background-corrected fluorescence was found to be 0.55 ± 0.031 (dye: Cy3 (3' terminal)) and 0.404 ± 0.027 (dye: Cy5 (3' terminal)).
On to “TTTTTTCATGATCAGCATGATTTTTTTTTTTTTTTGCGTC [CTGCG]”, for which the background-corrected fluorescence was determined as 0.481 ± 0.033 (dye: Cy3 (3' terminal)) and 0.366 ± 0.028 (dye: Cy5 (3' terminal)).
For “TTTTTTGAGCATGCGCATCATTTTTTTTTTTTTTTCTATG [GTATC]”, in that order: 0.564 ± 0.015 and 0.383 ± 0.029.
“TTTTTGCATGAGCATGATGCTTTTTTTTTTTTTTTTCTCA [ACTCT]” returned a background-corrected fluorescence (dye: Cy3 (3' terminal)) of 0.456 ± 0.019 and a background-corrected fluorescence (dye: Cy5 (3' terminal)) of 0.348 ± 0.022.
For the sequence “TTTTTTGCTCATCAGCATGCTTTTTTTTTTTTTTTAGGTA [ATGGA]”, the background-corrected fluorescence by setting is: (dye: Cy3 (3' terminal)) 0.564 ± 0.027; (dye: Cy5 (3' terminal)) 0.465 ± 0.06.
“TTTTTTGATGCTGCTCATGATTTTTTTTTTTTTTTCAAGC [CGAAC]”: the background-corrected fluorescence worked out at 0.514 ± 0.024 (dye: Cy3 (3' terminal)) and 0.426 ± 0.07 (dye: Cy5 (3' terminal)).
For “TTTTTGCATGCTCATCATGCTTTTTTTTTTTTTTTTAGGA [AGGAT]” the same measures were 0.747 ± 0.018 and 0.617 ± 0.032.
For “TTTTTGCATGATCAGCATCATTTTTTTTTTTTTTTTCGTG [GTGCT]”, in that order: 0.525 ± 0.015 and 0.441 ± 0.029.
For “TTTTTTCAGCAGCATGATGCTTTTTTTTTTTTTTTGTTCA [ACTTG]”, in that order: 0.492 ± 0.025 and 0.389 ± 0.044.
With “TTTTTTCAGCATGCTCATCATTTTTTTTTTTTTTTGTAGG [GGATG]”, the background-corrected fluorescence turned out to be 0.618 ± 0.027 (dye: Cy3 (3' terminal)) and 0.51 ± 0.1 (dye: Cy5 (3' terminal)).
For “TTTTTTCATGATGCTCATCATTTTTTTTTTTTTTTGCAGG [GGACG]” the same measures were 0.642 ± 0.025 and 0.516 ± 0.039.
For “TTTTTTGCGCATGATGATCATTTTTTTTTTTTTTTATCCG [GCCTA]”, in that order: 0.518 ± 0.023 and 0.427 ± 0.035.
For “TTTTTTGCGCATCATGCTGCTTTTTTTTTTTTTTTATGAA [AAGTA]”, in that order: 0.594 ± 0.017 and 0.51 ± 0.053.
Regarding “TTTTTTCATGATGCGCAGCATTTTTTTTTTTTTTTGCATT [TTACG]”, the background-corrected fluorescence was found to be 0.514 ± 0.018 (dye: Cy3 (3' terminal)) and 0.395 ± 0.019 (dye: Cy5 (3' terminal)).
For “TTTTTGCAGCATGATGATGATTTTTTTTTTTTTTTTTCCC [CCCTT]” the same measures were 0.35 ± 0.0099 and 0.266 ± 0.016.
With “TTTTTTCAGCATCAGCATCATTTTTTTTTTTTTTTGTGTG”, the background-corrected fluorescence came to 0.604 ± 0.017 (dye: Cy3 (3' terminal)) and 0.43 ± 0.03 (dye: Cy5 (3' terminal)).
Regarding “TTTTTTCATGCTGCTCATGCTTTTTTTTTTTTTTTGAAGA [AGAAG]”, the background-corrected fluorescence was found to be 0.6356 ± 0.0052 (dye: Cy3 (3' terminal)) and 0.582 ± 0.029 (dye: Cy5 (3' terminal)).
For “TTTTTTCATGCTGAGCATGATTTTTTTTTTTTTTTGACTC [CTCAG]” the same measures were 0.419 ± 0.021 and 0.317 ± 0.028.
For “TTTTTGCATCATCATGCTGATTTTTTTTTTTTTTTTGGAC [CAGGT]”, in that order: 0.5012 ± 0.0043 and 0.404 ± 0.046.
For “TTTTTGCATGCTGCTGATCATTTTTTTTTTTTTTTTAACG [GCAAT]”, in that order: 0.51 ± 0.034 and 0.426 ± 0.037.
As to “TTTTTTGCTGCTCATGATGATTTTTTTTTTTTTTTAAGCC [CCGAA]”, the background-corrected fluorescence is, setting by setting: (dye: Cy3 (3' terminal)) 0.443 ± 0.01; (dye: Cy5 (3' terminal)) 0.312 ± 0.023.
“TTTTTTCATCATGATCATGCTTTTTTTTTTTTTTTGGCGA [AGCGG]”: the background-corrected fluorescence amounted to 0.714 ± 0.035 (dye: Cy3 (3' terminal)) and 0.618 ± 0.07 (dye: Cy5 (3' terminal)).
For “TTTTTGCATGATCATCATGATTTTTTTTTTTTTTTTCGGC [CGGCT]” the same measures were 0.546 ± 0.031 and 0.47 ± 0.042.
For the sequence “TTTTTTGCTCATGATCAGCATTTTTTTTTTTTTTTAGCGT [TGCGA]”, the background-corrected fluorescence by setting is: (dye: Cy3 (3' terminal)) 0.679 ± 0.022; (dye: Cy5 (3' terminal)) 0.52 ± 0.023.
As for “TTTTTTGATGCTGCTGATGATTTTTTTTTTTTTTTCAACC [CCAAC]”, the background-corrected fluorescence is, setting by setting: (dye: Cy3 (3' terminal)) 0.377 ± 0.027; (dye: Cy5 (3' terminal)) 0.265 ± 0.023.
For “TTTTTTGATGCTGATCATGCTTTTTTTTTTTTTTTCACGA [AGCAC]”, the background-corrected fluorescence reads like this: (dye: Cy3 (3' terminal)) 0.594 ± 0.013; (dye: Cy5 (3' terminal)) 0.471 ± 0.023.
Regarding “TTTTTTGCTGAGCATCATCATTTTTTTTTTTTTTTACTGG [GGTCA]”, the background-corrected fluorescence by setting is: (dye: Cy3 (3' terminal)) 0.623 ± 0.022; (dye: Cy5 (3' terminal)) 0.481 ± 0.023.
Regarding “TTTTTTGATGATCATGATGCTTTTTTTTTTTTTTTCCGCA [ACGCC]”, the background-corrected fluorescence was determined as 0.539 ± 0.034 (dye: Cy3 (3' terminal)) and 0.475 ± 0.024 (dye: Cy5 (3' terminal)).
For “TTTTTTGATGATGCTCAGCATTTTTTTTTTTTTTTCCAGT [TGACC]” the same measures were 0.615 ± 0.023 and 0.458 ± 0.021.
“TTTTTTCATCATCATCATGATTTTTTTTTTTTTTTGGGGC [CGGGG]”: the background-corrected fluorescence is 0.631 ± 0.03 (dye: Cy3 (3' terminal)) and 0.532 ± 0.033 (dye: Cy5 (3' terminal)).
For “TTTTTTGAGCATCATCATGATTTTTTTTTTTTTTTCTGGC [CGGTC]” the same measures were 0.533 ± 0.0091 and 0.439 ± 0.035.
For “TTTTTTCATGATGATGATGCTTTTTTTTTTTTTTTGCCCA [ACCCG]”, in that order: 0.479 ± 0.026 and 0.389 ± 0.058.
For “TTTTTTCATCAGCATGATGCTTTTTTTTTTTTTTTGGTCA [ACTGG]”, in that order: 0.506 ± 0.027 and 0.414 ± 0.02.
Turning to “TTTTTTGCTGCTCATGAGCATTTTTTTTTTTTTTTAAGCT [TCGAA]”, the background-corrected fluorescence (dye: Cy3 (3' terminal)) came to 0.56 ± 0.028 and the background-corrected fluorescence (dye: Cy5 (3' terminal)) worked out at 0.402 ± 0.026.
Consider “TTTTTTGCTGCTGCGCAGCATTTTTTTTTTTTTTTAAATT”, for which the background-corrected fluorescence runs as follows: (dye: Cy3 (3' terminal)) 0.543 ± 0.048; (dye: Cy5 (3' terminal)) 0.401 ± 0.019.
